Here are results for two molecules from patent US20250236651A1.

For assay [1], the target named is SPIDICOL1 (Spidroin-I/Collagen Type-I fusion protein) (Nephila clavipes; human).
Assay [2] has as its target FIB3COL1 (Fibroin-III/Collagen Type-I fusion protein) (Araneus diadematus; human).
The target in assay [3] is native Bovine Collagen Type I (Thermo Fisher) (bovine) (UniProt P02453).
The target of assay [4] is SPIDICOL1 (Spidroin-I/Collagen Type-I fusion protein) (Nephila clavipes; human). This is another data set of the same source.
The target in assay [5] is FIB3COL1 (Fibroin-III/Collagen Type-I fusion protein) (Araneus diadematus; human). The source holds these as a separate data set.

As to collagenase (enzyme), the degradation of the electrospun scaffold (mass over time) in assay [1] came to 96 h; in assay [2], 100 h; in assay [3], 64 h.

B1: Lysin Hydroxylase 3 (LH3), exogenous human (enzyme)
chain: SDRPRGRDPVNPEKLLVITVATAETEGYLRFLRSAEFFNYTVRTLGLGEEWRGGDVARTVGGGQKVRWLKKEMEKYADREDMIIMFVDSYDVILAGSPTELLKKFVQSGSRLLFSAESFCWPEWGLAEQYPEVGTGKRFLNSGGFIGFATTIHQIVRQWKYKDDDDDQLFYTRLYLDPGLREKLSLNLDHKSRIFQNLNGALDEVVLKFDRNRVRIRNVAYDTLPIVVHGNGPTKLQLNYTYPEHERELGNYVPNGWTPEGGCGFCNQDRRTLPGGQPPPRVFLAVFVEQPTPFLPRFLQRLLLLDYPPDRVTLFLHNNEVFHEPHIADSWPQLQDHFSAVKLVGPEEALSPGEARDMAMDLCRQDPECEFYFSLDADAVLTNLQTLRILIEENRKVIAPMLSRHGKLWSNFWGALSPDEYYARSEDYVELVQRKRVGVWNVPYISQAYVIRGDTLRMELPQRDVFSGSDTDPDMAFCKSFRDKGIFLHLSNQHEFGRLLATSRYDTEHLHPDLWQIFDNPVDWKEQYIHENYSRALEGEGIVEQPCPDVYWFPLLSEQMCDELVAEMEHYGQWSGGRHEDSRLAGGYENVPTVDIHMKQVGYEDQWLQLLRTYVGPMTESLFPGYHTKARAVMNFVVRYRPDEQPSLRPHHDSSTFTLNVALNHKGLDYEGGGCRFLRYDCVISSPRKGWALLHPGRLTHYHEGLPTTWGTRYIMVSFVDP
Consider B1, for which the hydroxylysine content (amino acid analysis) in assay [4] was 36 fold; in assay [5] it was 39 fold.
